The target of data set [1] is Pyrococcus abyssi PolD DP1 subunit, exonuclease-deficient variant H451A, full length (Pyrococcus abyssi) (UniProt Q9V2F3). Description: AUC; sedimentation velocity of the copurified PolD complex at 0.2, 0.5 and 1 mg/ml, 42,000 rpm, 20°C; continuous c(s) distribution (Sedfit); sediments at 8 S, frictional ratio 1.4.
Data set [2] deals with T1, PolD DP1 H451A (exonuclease-deficient small subunit);PolD DP2 (large catalytic subunit) (Pyrococcus abyssi;Pyrococcus abyssi, UniProt Q9V2F3;Q9V2F4;Q9V2F4 1-619;1-954;1140-1455, H451A|). Description: fluorescence anisotropy; Fluorescence anisotropy: 20 mM sodium succinate pH 6, 100 mM NaCl, 25 C, 5 nM HEX-DNA, PolD up to 600 nM, DP2(1-1061) up to 6 uM. The conditions noted are these: protein: recombinant;recombinant; tags: N-terminal 14xHis, TEV-cleaved;; copies: 1;1;1; 3'-HEX in assay text; 18 bp duplex, 5' overhang 7 nt on template.

Data set [3] deals with T1, PolD DP1 H451A (exonuclease-deficient …). Described as above. To be noted: protein: recombinant;recombinant; tags: N-terminal 14xHis, TEV-cleaved;; copies: 1;1;1; 3'-HEX in assay text; blunt, 25 bp.
For data set [4] the target is unchanged. Nature of the data set: cryo-EM structure; Zn2+ and Fe3+ in protein; no nucleotide; Fluorescence anisotropy: 20 mM sodium succinate pH 6, 100 mM NaCl, 25 C, 5 nM HEX-DNA, PolD up to 600 nM, DP2(1-1061) up to 6 uM. The conditions noted are these: protein: recombinant;recombinant; tags: N-terminal 14xHis, TEV-cleaved;; copies: 1;1;1; 15 bp duplex, 5' overhang 5 nt on template.

The results in this text go back to PMC6355029, “Structure of the DP1–DP2 PolD complex bound with DNA and its implications for the evolutionary history of DNA and RNA polymerases”.

T1 sequence (Q9V2F3 whole entry H451A, chain 1 of 3): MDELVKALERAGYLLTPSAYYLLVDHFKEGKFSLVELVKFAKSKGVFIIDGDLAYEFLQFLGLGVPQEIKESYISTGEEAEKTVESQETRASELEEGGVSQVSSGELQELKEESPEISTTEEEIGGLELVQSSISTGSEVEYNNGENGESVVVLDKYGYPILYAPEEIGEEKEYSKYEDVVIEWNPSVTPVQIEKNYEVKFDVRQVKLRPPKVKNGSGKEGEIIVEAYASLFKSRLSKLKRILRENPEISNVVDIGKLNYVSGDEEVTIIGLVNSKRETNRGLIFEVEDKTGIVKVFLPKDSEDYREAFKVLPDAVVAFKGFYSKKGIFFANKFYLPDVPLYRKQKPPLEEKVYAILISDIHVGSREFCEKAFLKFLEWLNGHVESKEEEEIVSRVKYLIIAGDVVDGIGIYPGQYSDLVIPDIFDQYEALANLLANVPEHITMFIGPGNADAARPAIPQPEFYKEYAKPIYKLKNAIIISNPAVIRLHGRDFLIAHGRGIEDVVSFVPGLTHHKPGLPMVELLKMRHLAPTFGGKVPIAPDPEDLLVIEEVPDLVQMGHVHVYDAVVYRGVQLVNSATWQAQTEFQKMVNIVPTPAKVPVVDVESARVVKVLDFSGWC
T1 sequence (Q9V2F4 1-954, chain 2 of 3): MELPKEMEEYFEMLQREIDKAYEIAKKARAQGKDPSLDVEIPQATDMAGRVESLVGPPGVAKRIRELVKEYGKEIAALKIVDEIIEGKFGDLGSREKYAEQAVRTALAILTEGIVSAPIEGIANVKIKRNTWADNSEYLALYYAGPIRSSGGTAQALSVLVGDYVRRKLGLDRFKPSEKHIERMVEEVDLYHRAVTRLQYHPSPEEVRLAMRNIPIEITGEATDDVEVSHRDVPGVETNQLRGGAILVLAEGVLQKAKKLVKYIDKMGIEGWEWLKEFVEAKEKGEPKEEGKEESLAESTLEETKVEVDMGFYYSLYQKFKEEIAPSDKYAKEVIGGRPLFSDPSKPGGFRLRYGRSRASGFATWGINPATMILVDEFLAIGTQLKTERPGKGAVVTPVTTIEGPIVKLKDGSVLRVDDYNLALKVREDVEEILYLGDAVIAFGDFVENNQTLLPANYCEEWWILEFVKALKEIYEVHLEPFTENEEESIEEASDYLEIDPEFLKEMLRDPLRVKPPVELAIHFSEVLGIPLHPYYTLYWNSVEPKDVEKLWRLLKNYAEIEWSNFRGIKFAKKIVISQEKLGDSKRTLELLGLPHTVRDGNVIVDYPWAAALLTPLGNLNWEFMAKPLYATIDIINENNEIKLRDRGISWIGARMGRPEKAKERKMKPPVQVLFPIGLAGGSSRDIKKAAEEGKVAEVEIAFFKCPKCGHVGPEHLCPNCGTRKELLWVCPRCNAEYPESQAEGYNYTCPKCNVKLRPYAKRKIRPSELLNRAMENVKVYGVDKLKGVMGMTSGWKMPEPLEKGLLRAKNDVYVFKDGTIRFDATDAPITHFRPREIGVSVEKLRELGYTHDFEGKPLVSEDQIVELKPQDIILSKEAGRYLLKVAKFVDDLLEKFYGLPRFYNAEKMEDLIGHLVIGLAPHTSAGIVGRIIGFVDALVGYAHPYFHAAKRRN
T1 sequence (Q9V2F4 1140-1455, chain 3 of 3): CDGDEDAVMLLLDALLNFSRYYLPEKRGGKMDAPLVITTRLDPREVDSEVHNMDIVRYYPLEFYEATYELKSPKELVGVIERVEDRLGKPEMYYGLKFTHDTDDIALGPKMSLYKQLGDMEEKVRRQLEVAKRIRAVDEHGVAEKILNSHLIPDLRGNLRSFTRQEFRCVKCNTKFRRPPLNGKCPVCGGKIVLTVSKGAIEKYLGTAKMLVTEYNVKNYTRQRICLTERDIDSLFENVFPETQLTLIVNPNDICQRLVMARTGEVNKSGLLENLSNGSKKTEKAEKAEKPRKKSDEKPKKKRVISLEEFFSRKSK
Pyrococcus abyssi PolD DP1 subunit, exonuclease-deficient variant H451A, full length (Pyrococcus abyssi), sequence (Q9V2F3 whole entry H451A): as the sequence (Q9V2F3 whole entry H451A, chain 1 of 3) above

Consider “Pyrococcus abyssi PolD DP2 subunit, full length (from UniProt Q9V2F4 1-1455) (enzyme)”, for which the stoichiometry N in data set [1] is 1.

B1: HEX primer/template (dsDNA)
DNA 1: CGCCGGGCCGAGCCGTGC
DNA 2: AGGTCGTGCACGGCTCGGCCCGGCG
In the case of B1, the Kd in data set [2] worked out at 15 nM.

B2: HEX dsDNA (dsDNA)
DNA 1: CGCCGGGCCGAGCCGTGCACGACCT
DNA 2: AGGTCGTGCACGGCTCGGCCCGGCG
B2: in data set [3], the binding signal is 6.5 fold weaker Kd than primer-template.

B3: cryo-EM primer/template (dsDNA)
DNA 1: GAGACGGGCCGCGTC
DNA 2: ACTTTGACGCGGCCCGTCTC
On to B3, for which the binding result in data set [4] is “binds”.
